The results in this text go back to US20050244864A1, “Development and use of fluorescent probes of unbound analytes” (priority 2004, published 2005).

Assay [1] can be described thus: Mutant probe screening: baseline fluorescence ratio Ro and fatty acid response phenotype. The assay is classed as binding. The conditions noted are these: 7 FFA: AA, LNA, LA, OA, PA, POA, SA. The protocol: The intensity ratio (“R” value) for a given probe is determined. The ratio is calculated using the following formula: R=Fλ1/Fλ2 wherein, Fλ1, is the measured fluorescence intensities (intensity of sample with probe present minus intensity of sample without probe present) at wavelength 1 and Fλ2 is the measured fluorescence intensities (intensity of sample with probe present minus intensity of sample without probe present) at wavelength 2. Then, for a given probe, ΔR, the difference in R value between the measurement in the presence of the analyte and in the absence of the analyte, is calculated as follows: ΔR=R+analyte−R0 The ΔR value for a given probe is then compared to a reference probe, for example, ADIFAB or ADIFAB2, by ΔR/ΔRreference. […] Measurements of fluorescence intensities are obtained using standard techniques.
Plates were prepared and read in two stages. […] The background fluorescence was then measured at the same wavelengths as used for ADIFAB2 using a Fluorolog-3 spectrofluorometer with an external Micromax 384 fluorescence plate reader (Jobin Yvon). In the second stage, 30 μL aliquots of the mutant probes were added to multiple wells of the plate, one for each fatty acid and one with fatty acid free BSA only, and the fluorescence intensity at each wavelength was again measured on the plate reader. […]

Assay [2] can be described thus: Probe fluorescence ratio response to palmitoleate:BSA complex, relative to ADIFAB2 (ΔR/ΔRAD2). The assay is classed as binding.
Assay [3] can be described thus: Probe fluorescence ratio response to linoleate:BSA complex, relative to ADIFAB2 (ΔR/ΔRAD2). The conditions noted are these: fluorescence response (R-Ro) relative to ADIFAB2, linoleate. The assay is classed as binding. In short, it runs like this: (§1)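 Mutant probes were screened against fatty acid:BSA complexes made by adding fatty acid sodium salts at pH 11 to BSA in HEPES, titrated until ADIFAB2 gave ΔR ≈0.4 ([FFAu] 100–1000 nM). Wells held 6 μM BSA; excitation 375 nm, emission 550/457 nm, background-subtracted.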

Assay [4] can be described thus: Probe fluorescence ratio response to palmitate:BSA complex, relative to ADIFAB2 (ΔR/ΔRAD2). The conditions noted are these: fluorescence response (R-Ro) relative to ADIFAB2, palmitate. The assay is classed as binding. The procedure, abridged: as §1
A short description of assay [5]: Probe fluorescence ratio response to linolenate:BSA complex, relative to ADIFAB2 (ΔR/ΔRAD2). In kind it is binding. The conditions noted are these: fluorescence response (R-Ro) relative to ADIFAB2, linolenate. The procedure, abridged: as §1
A short description of assay [6]: Probe fluorescence ratio response to stearate:BSA complex, relative to ADIFAB2 (ΔR/ΔRAD2). In kind it is binding.
Assay [7] is described as follows: Probe fluorescence ratio response to oleate:BSA complex, relative to ADIFAB2 (ΔR/ΔRAD2). In kind it is binding. The conditions noted are these: fluorescence response (R-Ro) relative to ADIFAB2, oleate. The procedure, abridged:
as §1

A short description of assay [8]: Probe fluorescence ratio response to arachidonate:BSA complex, relative to ADIFAB2 (ΔR/ΔRAD2). In kind it is binding. The conditions noted are these: fluorescence response (R-Ro) relative to ADIFAB2, arachidonate. The procedure, abridged: as §1
The nature of assay [9]: Screening of FFA-insensitive probes for response to UCB:BSA complexes (ΔI/Io). In kind it is binding. The conditions noted are these: fractional change in fluorescence intensity; for ΔI/Io 1:1 UCB:BSA 440 nm / ΔI/Io 1:1 UCB:BSA 500 nm: UCB:BSA 1:1; for ΔI/Io 1:1 UCB:BSA 440 nm / ΔI/Io 1:2 UCB:BSA 440 nm: emission 440 nm; for ΔI/Io 1:1 UCB:BSA 500 nm / ΔI/Io 1:2 UCB:BSA 500 nm: emission 500 nm; for ΔI/Io 1:2 UCB:BSA 440 nm / ΔI/Io 1:2 UCB:BSA 500 nm: UCB:BSA 1:2. The protocol: A probe for unbound unconjugated bilirubin (UCBu) was developed and used to measure concentrations of UCBu in plasma spiked with a defined quantity of unconjugated bilirubin (UCB). Using 384-well plates, 335 mutant probes that were insensitive to FFA were screened for their response to UCB:BSA complexes at UCB:BSA ratios of 1:1 and 1:2 in aqueous buffer. All probes were prepared from rI-FABP-L72A with 1 to 5 mutations. Screening was conducted by comparing the fractional change in fluorescence intensity (ΔI/Io, where ΔI is the difference in probe intensity in the presence and absence of UCB and Io is the intensity in the absence of UCB) for the probes with that for ADIFAB2. This value was calculated for two emission wavelengths: 440 and 500 nm. […] The emitted fluorescence of these probes is quenched by binding of UCB.

The nature of assay [10]: Binding isotherm: probe titrated with UCB, Kd. The conditions noted are these: UCB; at 22° C.; read-out: Kd (nM) at 22° C. The method, then:
Larger preparations of select probes were prepared for quantitative determination of binding affinities. Binding isothermns were performed by measuring the fluorescence intensity for 1 μM of a given probe as the probe was titrated with known quantities of UCB. […] Table 3 lists the Kd values and mutations for some example probes. […] This property was confirmed by titration of a mixture of 0.5 μM UCB and 1 μM L2P14F7 with sodium oleate. […] Oleic acid is the most abundant FFA in serum, and measurements of normal serum samples indicate that typical unbound concentrations of oleic acid are less than 1 nM. By using non-responsive probes from FFA screening to conduct a secondary screening with other unbound analytes, a UCB-sensitive probe that has a negligible response to the major FFA in blood has been generated from a rI-FABP-L72A mutant.

[11] abbreviates: fluorescence response (R-Ro) relative to ADIFAB2.
[12] abbreviates: fluorescence response (R-Ro) relative to ADIFAB2, listed as L2P12G9.
Where [13] appears, read: fluorescence response (R-Ro) relative to ADIFAB2, listed as L2P21C1.

One may read the Kd as a measure of binding affinity in units of concentration.

B1: L2P12 G9: acrylodan-labeled rI-FABP-L72A mutein: M18 L, G31 WT, F55 WT, A73 V (protein, UniProt P02693 2-132, looked up, variant M18L L72A A73V)
Fatty acid-binding protein, …: AFDGTWKVDRNENYEKFLEKMGINVVKRKLGAHDNLKLTITQEGNKFTVKESSNFRNIDVVFELGVDFAYSAVDGTELTGTWTMEGNKLVGKFKRVDNGKELIAVREISGNELIQTYTYEGVEAKRIFKKE
modifications: acrylodan label
notes: acrylodan-labeled rI-FABP-L72A mutein: M18 L, G31 WT, F55 WT, A73 V
With B1, the “phenotype (fatty acid response) relative to ADIFAB2” value in [1] is “response only for AA and SA”. Further, the “ΔR/ΔRAD2 POA” value in assay [2] (setting [11]) was −0.01; in assay [2] (setting [12]) it was 0.0. The “ΔR/ΔRAD2 LA” value is given as −0.07 in [3] and −0.1 in [3] (listed as L2P12G9). In addition, the “ΔR/ΔRAD2 PA” value in assay [4] was determined as 0.03; in assay [4] (listed as L2P12G9) it was 0.0. Moreover, the “ΔR/ΔRAD2 LNA” value in [5] came out at 0.01; in assay [5] (listed as L2P12G9) it was 0.0. The entries for the “ΔR/ΔRAD2 SA” value in assay [6] (setting [11]) and in assay [6] (setting [12]) were 0.48 and 0.4, respectively. Moreover, the “ΔR/ΔRAD2 OA” value in assay [7] stood at 0.07; in assay [7] (listed as L2P12G9), 0.0. Also, the “ΔR/ΔRAD2 AA” value in assay [8] was 0.54; in assay [8] (listed as L2P12G9) it was 0.5.

B2: L5P16 H4: UCB-responsive probe from rI-FABP-L72A; mutations 126K 73F 72A (protein, UniProt P02693 2-132, looked up, variant L72A A73F R126K)
Fatty acid-binding protein, …: AFDGTWKVDRNENYEKFMEKMGINVVKRKLGAHDNLKLTITQEGNKFTVKESSNFRNIDVVFELGVDFAYSAFDGTELTGTWTMEGNKLVGKFKRVDNGKELIAVREISGNELIQTYTYEGVEAKKIFKKE
modifications: acrylodan label
notes: UCB-responsive probe from rI-FABP-L72A; mutations 126K 73F 72A
As to B2, in assay [9], the “ΔI/Io 1:1 UCB:BSA 440 nm” value is −0.69, the “ΔI/Io 1:1 UCB:BSA 500 nm” value is reported as −0.64, the “ΔI/Io 1:2 UCB:BSA 440 nm” value is recorded as −0.37 and the “ΔI/Io 1:2 UCB:BSA 500 nm” value is −0.31. For the same molecule, in [10], the equilibrium dissociation constant (Kd) stood at 390 nM.

B3: L2P4C5: acrylodan-labeled rI-FABP-L72A mutein: M18 I, G31 Y, F55 WT, A73 WT (protein, UniProt P02693 2-132, looked up, variant M18I G31Y L72A)
Fatty acid-binding protein, …: AFDGTWKVDRNENYEKFIEKMGINVVKRKLYAHDNLKLTITQEGNKFTVKESSNFRNIDVVFELGVDFAYSAADGTELTGTWTMEGNKLVGKFKRVDNGKELIAVREISGNELIQTYTYEGVEAKRIFKKE
modifications: acrylodan label
For B3, in [2] (setting [11]), the “ΔR/ΔRAD2 POA” value was determined as 2.6. Also, the “ΔR/ΔRAD2 LA” value in assay [3] is on record as 2.8. Besides, the “ΔR/ΔRAD2 PA” value in assay [4] is reported as 1.8. In assay [5], the “ΔR/ΔRAD2 LNA” value came out at 2.8. The “ΔR/ΔRAD2 SA” value in assay [6] (setting [11]) is 1.0. For the same molecule, the “ΔR/ΔRAD2 OA” value in assay [7] was 2.1. Besides, in assay [8], the “ΔR/ΔRAD2 AA” value is on record as 2.2.

B4: L2P22 B1: UCB-responsive probe from rI-FABP-L72A; mutations 18Y 31V 55V 72A (protein, UniProt P02693 2-132, looked up, variant M18Y G31V F55V L72A)
Fatty acid-binding protein, …: AFDGTWKVDRNENYEKFYEKMGINVVKRKLVAHDNLKLTITQEGNKFTVKESSNVRNIDVVFELGVDFAYSAADGTELTGTWTMEGNKLVGKFKRVDNGKELIAVREISGNELIQTYTYEGVEAKRIFKKE
Take B4: in [9], the “ΔI/Io 1:1 UCB:BSA 440 nm” value is −0.70, the “ΔI/Io 1:1 UCB:BSA 500 nm” value is −0.68, the “ΔI/Io 1:2 UCB:BSA 440 nm” value is −0.36 and the “ΔI/Io 1:2 UCB:BSA 500 nm” value is −0.35. Besides, the Kd in assay [10] was 550 nM.

B5: L2P21 C1: acrylodan-labeled rI-FABP-L72A mutein: M18 I, G31 Y, F55 WT, A73 V (protein, UniProt P02693 2-132, looked up, variant M18I G31Y L72A A73V)
Fatty acid-binding protein, …: AFDGTWKVDRNENYEKFIEKMGINVVKRKLYAHDNLKLTITQEGNKFTVKESSNFRNIDVVFELGVDFAYSAVDGTELTGTWTMEGNKLVGKFKRVDNGKELIAVREISGNELIQTYTYEGVEAKRIFKKE
modifications: acrylodan label
notes: acrylodan-labeled rI-FABP-L72A mutein: M18 I, G31 Y, F55 WT, A73 V
With B5, in assay [1], the “phenotype (fatty acid response) relative to ADIFAB2” value is “greater response for all 7 FFA”. Further, the “ΔR/ΔRAD2 POA” value in assay [2] (setting [11]) is listed as 3.52; in [2] (setting [13]), 2.9. The results for the “ΔR/ΔRAD2 LA” value in assay [3] and in assay [3] (listed as L2P21C1) were 4.04 and 3.4, respectively. The “ΔR/ΔRAD2 PA” value in assay [4] is on record as 2.54; in assay [4] (listed as L2P21C1) it was 2.0. Further, the “ΔR/ΔRAD2 LNA” value in [5] is given as 3.73; in assay [5] (listed as L2P21C1) it was 3.1. Besides, the “ΔR/ΔRAD2 SA” value in assay [6] (setting [11]) was determined as 2.02; in assay [6] (setting [13]) it was 1.6. The “ΔR/ΔRAD2 OA” value was 3.20 in assay [7] and 2.7 in assay [7] (listed as L2P21C1). For the same molecule, the “ΔR/ΔRAD2 AA” value in [8] was determined as 3.27; in assay [8] (listed as L2P21C1), 2.8.
